Experiments:
[1] = molecular target: T1, biotinylated extracellular domains of human CD123 (uniprot ID 26951), Fc format (human, UniProt P26951 19-305, biotinylated); assay: crude extract HTRF, 6 nM biotinylated CD123
T1 construct: extracellular domain
T1 sequence (looked up): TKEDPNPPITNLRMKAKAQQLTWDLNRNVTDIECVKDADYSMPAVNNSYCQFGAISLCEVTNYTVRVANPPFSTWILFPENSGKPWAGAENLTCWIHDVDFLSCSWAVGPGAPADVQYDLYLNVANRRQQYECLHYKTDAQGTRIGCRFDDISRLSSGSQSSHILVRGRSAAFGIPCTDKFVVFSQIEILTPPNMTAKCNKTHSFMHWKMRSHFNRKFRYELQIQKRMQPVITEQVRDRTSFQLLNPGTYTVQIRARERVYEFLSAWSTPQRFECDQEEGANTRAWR
From the text: (§1) Individual selected ankyrin repeat proteins specifically binding to hCD123 in solution were identified by a Homogeneous Time Resolved Fluorescence (HTRF) assay using crude extracts of ankyrin repeat protein-expressing Escherichia coli cells using standard protocols. Ankyrin repeat protein clones selected by ribosome display were cloned into derivatives of the pQE30 (Qiagen) expression vector (pMPDV045), which contains a C-terminal CD3 binding designed ankyrin repeat protein followed by a Flag tag, transformed into E. coli XL1-Blue (Stratagene), plated on LB-agar (containing 1% glucose and 50 μg/ml ampicillin) and then incubated overnight at 37° C. […]
The extract of each lysed clone was applied as a 1:500 dilution (final concentration) in PBSTB (PBS supplemented with 0.1% Tween 20® and 0.2% (w/v) BSA, pH 7.4) together with 6 nM (final concentration) biotinylated human or cyno CD123, 1:300 (final concentration) of anti-6His-D2 HTRF antibody-FRET acceptor conjugate (Cisbio) and 1:300 (final concentration) of anti-strep-Tb antibody FRET donor conjugate (Cisbio) to a well of 384 well plate and incubated for 120 minutes at RT. The HTRF was read-out on a Tecan M1000 using a 340 nm excitation wavelength and a 665±10 nm emission filter.

[2] = molecular target: T2, extracellular domain of human CD70 (SEQ ID NO: 89), hCD70-Fc-trimer, ACRO Biosystems (human, UniProt P32970 52-193, chemically biotinylated where the biotinylated form was used); assay: crude extract HTRF, 2 nM biotinylated hCD70
T2 construct: also called human CD70-Fc-trimer; Bio.CD70
T2 sequence: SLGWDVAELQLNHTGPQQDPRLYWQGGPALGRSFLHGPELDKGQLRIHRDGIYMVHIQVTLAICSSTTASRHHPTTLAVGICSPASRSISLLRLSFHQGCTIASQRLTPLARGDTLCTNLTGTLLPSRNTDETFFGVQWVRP
From the text: as §1, with “hCD70” for “hCD123”, “(pMPDV25),” for “(pMPDV045), which contains a C-terminal CD3 binding designed ankyrin repeat protein followed by a Flag tag,”, “C. Single colonies were picked into a 96 well plate (each clone in a single well) containing 160 μl growth medium (TB containing 1% glucose and 50 μg/ml ampicillin) and incubated overnight at 37° C., shaking at 800 rpm.” for “C.”
The extract of each lysed clone was applied as a 1:2000 dilution (final concentration) in PBSTB (PBS supplemented with 0.1% Tween 20® and 0.2% (w/v) BSA, pH 7.4) together with 2 nM (final concentration) biotinylated hCD70, 1:400 (final concentration) of anti-strep-Tb HTRF antibody-FRET donor conjugate (Cisbio) and 1:400 (final concentration) of anti-6His-D2 antibody FRET acceptor conjugate (Cisbio) to a well of 384 well plate and incubated for 60 minutes at RT. The HTRF was read-out on a Tecan M1000 using a 340 nm excitation wavelength and a 665±10 nm emission filter. […]

Binder	binding result [1]	binding result [2]
DARPin® protein #64 (designed binder, CD123-specific domain; screened as crude extract) DLGWKLLDAAEIGQDDEVRILLAAGADVNAKDKQGITPLHIAAAHGHLEIVEVLLKAGADVNAKDEIGRTPLHLAAFKGHLEIVEVLLKAGADVNAQDIIGETPADLAAVRGHEDIAEVLQKAA	binds	
DARPin® protein #68 (designed binder, CD70-specific domain; screened as crude extract (vector pMPDV25)) DLGKKLLQAARAGQLDEVRELLKAGADVNAKDQAGLTPLHIAAATGHLEIVEVLLKAGADVNAKDFSGLTPLHLAAFEGHLEIVEVLLKAGADVNAKDQHGQTPLHLAAWTGHLEIVEVLLKAGADVNAQDKSGKTPADLAARAGHQDIAEVLQKAA		binds

Continued, values first:

binding result [1]	binding result [2]	Binder
binds		DARPin® protein #63 (designed binder, CD123-specific domain; screened as crude extract) DLGKKLLQAARAGQLDEVRELLKAGADVNAKDQYGRTPLHLAAIKGHLEIVEVLLKAGADVNAKDSLGYTPLHLAAVEGPLEIVEVLLKAGADVNAKDAYGQTPLHIAAAWGHLEIVEVLLKAVADVNAQDKSGKTPADLAARAGHQDIAEVLQKAA
	binds	DARPin® protein #69 (designed binder, CD70-specific domain; screened as crude extract (vector pMPDV25)) DLGYKLLQAAYDGQDDEVRILLAAGADVNAKDSRGQTPLHYAASIGHLEIVEVLLKAGADVNAKDDHGWTPLHLAAWSGHLEIVEVLLKAGADVNAQDQEGTTPADLAAVQSHEDIAEVLQKAA

Source: patent publication US20240254229A1 (Molecular Partners, published 2024)
